Substitutions are numbered along the chain they refer to. Numbers in names are those of the source.
B1: F159N: PYR1 mutant (protein, UniProt O49686 1-191, looked up, variant F159N)
Abscisic acid receptor PYR1: MPSELTPEERSELKNSIAEFHTYQLDPGSCSSLHAQRIHAPPELVWSIVRRFDKPQTYKHFIKSCSVEQNFEMRVGCTRDVIVISGLPANTSTERLDILDDERRVTGFSIIGGEHRLTNYKSVTTVHRFEKENRIWTVVLESYVVDMPEGNSEDDTRMNADTVVKLNLQKLATVAEAMARNSGDGSGSQVT
B2: F159Y: PYR1 mutant (protein, UniProt O49686 1-191, looked up, variant F159Y)
Abscisic acid receptor PYR1: B1 Abscisic acid receptor PYR1 with N159Y
B3: F159S: PYR1 mutant (protein, UniProt O49686 1-191, looked up, variant F159S)
Abscisic acid receptor PYR1: B1 Abscisic acid receptor PYR1 with N159S
B4: I62R: PYR1 mutant (protein, UniProt O49686 1-191, looked up, variant I62R)
Abscisic acid receptor PYR1: B1 Abscisic acid receptor PYR1 with I62R, N159F
B5: S85L: PYR1 mutant (protein, UniProt O49686 1-191, looked up, variant S85L)
Abscisic acid receptor PYR1: B1 Abscisic acid receptor PYR1 with S85L, N159F
B6: I62G: PYR1 mutant (protein, UniProt O49686 1-191, looked up, variant I62G)
Abscisic acid receptor PYR1: B1 Abscisic acid receptor PYR1 with I62G, N159F
B7: I62E: PYR1 mutant (protein, UniProt O49686 1-191, looked up, variant I62E)
Abscisic acid receptor PYR1: B1 Abscisic acid receptor PYR1 with I62E, N159F
B8: F61D: PYR1 mutant (protein, UniProt O49686 1-191, looked up, variant F61D)
Abscisic acid receptor PYR1: B1 Abscisic acid receptor PYR1 with F61D, N159F
B9: F61N: PYR1 mutant (protein, UniProt O49686 1-191, looked up, variant F61N)
Abscisic acid receptor PYR1: B1 Abscisic acid receptor PYR1 with F61N, N159F
B10: F61P: PYR1 mutant (protein, UniProt O49686 1-191, looked up, variant F61P)
Abscisic acid receptor PYR1: B1 Abscisic acid receptor PYR1 with F61P, N159F
B11: S85W: PYR1 mutant (protein, UniProt O49686 1-191, looked up, variant S85W)
Abscisic acid receptor PYR1: B1 Abscisic acid receptor PYR1 with S85W, N159F
B12: F159P: PYR1 mutant (protein, UniProt O49686 1-191, looked up, variant F159P)
Abscisic acid receptor PYR1: B1 Abscisic acid receptor PYR1 with N159P
B13: F61I: PYR1 mutant (protein, UniProt O49686 1-191, looked up, variant F61I)
Abscisic acid receptor PYR1: B1 Abscisic acid receptor PYR1 with F61I, N159F
B14: I62D: PYR1 mutant (protein, UniProt O49686 1-191, looked up, variant I62D)
Abscisic acid receptor PYR1: B1 Abscisic acid receptor PYR1 with I62D, N159F
B15: S85P: PYR1 mutant (protein, listed as Arabidopsis thaliana)
chain: B1 Abscisic acid receptor PYR1 with S85P, N159F
B16: F159R: PYR1 mutant (protein, UniProt O49686 1-191, looked up, variant F159R)
Abscisic acid receptor PYR1: B1 Abscisic acid receptor PYR1 with N159R
B17: T162F: PYR1 mutant (protein, UniProt O49686 1-191, looked up, variant T162F)
Abscisic acid receptor PYR1: B1 Abscisic acid receptor PYR1 with N159F, T162F
B18: F159K: PYR1 mutant (protein, UniProt O49686 1-191, looked up, variant F159K)
Abscisic acid receptor PYR1: B1 Abscisic acid receptor PYR1 with N159K
B19: I62Y: PYR1 mutant (protein, UniProt O49686 1-191, looked up, variant I62Y)
Abscisic acid receptor PYR1: B1 Abscisic acid receptor PYR1 with I62Y, N159F
B20: I62W: PYR1 mutant (protein, UniProt O49686 1-191, looked up, variant I62W)
Abscisic acid receptor PYR1: B1 Abscisic acid receptor PYR1 with I62W, N159F
B21: I84L: PYR1 mutant (protein, UniProt O49686 1-191, looked up, variant I84L)
Abscisic acid receptor PYR1: B1 Abscisic acid receptor PYR1 with I84L, N159F
B22: F159E: PYR1 mutant (protein, UniProt O49686 1-191, looked up, variant F159E)
Abscisic acid receptor PYR1: B1 Abscisic acid receptor PYR1 with N159E
B23: T162E: PYR1 mutant (protein, UniProt O49686 1-191, looked up, variant T162E)
Abscisic acid receptor PYR1: B1 Abscisic acid receptor PYR1 with N159F, T162E
B24: F61K: PYR1 mutant (protein, listed as Arabidopsis thaliana)
chain: B1 Abscisic acid receptor PYR1 with F61K, N159F
B25: S85A: PYR1 mutant (protein, UniProt O49686 1-191, looked up, variant S85A)
Abscisic acid receptor PYR1: B1 Abscisic acid receptor PYR1 with S85A, N159F
B26: S85Q: PYR1 mutant (protein, UniProt O49686 1-191, looked up, variant S85Q)
Abscisic acid receptor PYR1: B1 Abscisic acid receptor PYR1 with S85Q, N159F
B27: F61R: PYR1 mutant (protein, UniProt O49686 1-191, looked up, variant F61R)
Abscisic acid receptor PYR1: B1 Abscisic acid receptor PYR1 with F61R, N159F
B28: S85R: PYR1 mutant (protein, UniProt O49686 1-191, looked up, variant S85R)
Abscisic acid receptor PYR1: B1 Abscisic acid receptor PYR1 with S85R, N159F
B29: F61S: PYR1 mutant (protein, UniProt O49686 1-191, looked up, variant F61S)
Abscisic acid receptor PYR1: B1 Abscisic acid receptor PYR1 with F61S, N159F
B30: F159Q: PYR1 mutant (protein, UniProt O49686 1-191, looked up, variant F159Q)
Abscisic acid receptor PYR1: B1 Abscisic acid receptor PYR1 with N159Q
B31: K170P: PYR1 mutant (protein, UniProt O49686 1-191, looked up, variant K170P)
Abscisic acid receptor PYR1: B1 Abscisic acid receptor PYR1 with N159F, K170P
B32: F61G: PYR1 mutant (protein, UniProt O49686 1-191, looked up, variant F61G)
Abscisic acid receptor PYR1: B1 Abscisic acid receptor PYR1 with F61G, N159F
B33: S85N: PYR1 mutant (protein, UniProt O49686 1-191, looked up, variant S85N)
Abscisic acid receptor PYR1: B1 Abscisic acid receptor PYR1 with S85N, N159F
B34: F61Q: PYR1 mutant (protein, UniProt O49686 1-191, looked up, variant F61Q)
Abscisic acid receptor PYR1: B1 Abscisic acid receptor PYR1 with F61Q, N159F
B35: F159D: PYR1 mutant (protein, UniProt O49686 1-191, looked up, variant F159D)
Abscisic acid receptor PYR1: B1 Abscisic acid receptor PYR1 with N159D
B36: F61H: PYR1 mutant (protein, UniProt O49686 1-191, looked up, variant F61H)
Abscisic acid receptor PYR1: B1 Abscisic acid receptor PYR1 with F61H, N159F
B37: F159G: PYR1 mutant (protein, UniProt O49686 1-191, looked up, variant F159G)
Abscisic acid receptor PYR1: B1 Abscisic acid receptor PYR1 with N159G
B38: F61E: PYR1 mutant (protein, UniProt O49686 1-191, looked up, variant F61E)
Abscisic acid receptor PYR1: B1 Abscisic acid receptor PYR1 with F61E, N159F
B39: S85V: PYR1 mutant (protein, UniProt O49686 1-191, looked up, variant S85V)
Abscisic acid receptor PYR1: B1 Abscisic acid receptor PYR1 with S85V, N159F
B40: F159H: PYR1 mutant (protein, UniProt O49686 1-191, looked up, variant F159H)
Abscisic acid receptor PYR1: B1 Abscisic acid receptor PYR1 with N159H
B41: F159W: PYR1 mutant (protein, UniProt O49686 1-191, looked up, variant F159W)
Abscisic acid receptor PYR1: B1 Abscisic acid receptor PYR1 with N159W
B42: T162P: PYR1 mutant (protein, UniProt O49686 1-191, looked up, variant T162P)
Abscisic acid receptor PYR1: B1 Abscisic acid receptor PYR1 with N159F, T162P
B43: S85M: PYR1 mutant (protein, UniProt O49686 1-191, looked up, variant S85M)
Abscisic acid receptor PYR1: B1 Abscisic acid receptor PYR1 with S85M, N159F
B44: K63P: PYR1 mutant (protein, UniProt O49686 1-191, looked up, variant K63P)
Abscisic acid receptor PYR1: B1 Abscisic acid receptor PYR1 with K63P, N159F
B45: I62K: PYR1 mutant (protein, UniProt O49686 1-191, looked up, variant I62K)
Abscisic acid receptor PYR1: B1 Abscisic acid receptor PYR1 with I62K, N159F

Test system: HAB1
Experiment: Yeast two hybrid of pBD-PYR1 site saturation mutants with pACT-HAB1 on 10 μM ABA, β-galactosidase staining
Type: cell-based, Arabidopsis
Parameters: key: x: Mutations in PYR1 that disrupt ABA-induced binding to PYR1 to HAB1
Conditions: S. cerevisiae Y190, 10 μM ABA; dead = lack of visible staining in comparison to wild type control
Method in brief: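 Binding was read by β-galactosidase staining of chloroform-lysed colonies after 2 days at 30° C on SD (-Leu, -Trp) plates containing 10 μM (+)-ABA. Yeast strain Y190 carried the BD-PYR1 single-substitution mutants plus the AD-HAB1 fusion. Absence of staining versus the wild-type control defined "dead" mutants.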

| Molecule | Mutations in PYR1 that disrupt ABA-induced binding to PYR1 to HAB1 |
| --- | --- |
| B1 | x |
| B2 | x |
| B3 | x |
| B4 | x |
| B5 | x |
| B6 | x |
| B7 | x |
| B8 | x |
| B9 | x |
| B10 | x |
| B11 | x |
| B12 | x |
| B13 | x |
| B14 | x |
| B15 | x |
| B16 | x |
| B17 | x |
| B18 | x |
| B19 | x |
| B20 | x |
| B21 | x |
| B22 | x |
| B23 | x |

| Molecule | Mutations in PYR1 that disrupt ABA-induced binding to PYR1 to HAB1 |
| --- | --- |
| B24 | x |
| B25 | x |
| B26 | x |
| B27 | x |
| B28 | x |
| B29 | x |
| B30 | x |
| B31 | x |
| B32 | x |
| B33 | x |
| B34 | x |
| B35 | x |
| B36 | x |
| B37 | x |
| B38 | x |
| B39 | x |
| B40 | x |
| B41 | x |
| B42 | x |
| B43 | x |
| B44 | x |
| B45 | x |

Reference: patent US10919943B2, “Mutant proteins enabling agrochemical control of plant gene expression” (The Regents of the University of California, priority 2016, dated 2021)
